The RNAGym collection of RNA variant scans (doi:10.1073/pnas.2313332121)

B1: TPR t1 (parent)
chain: GACCAAUCUGCCCUCAGAGCUCGAGAACAUCUUCGGAUGCAGAGGAGGCAGGCUUCGGUGGCGCGAUAGCGCCAACGUCCUCAACCUCCAAUGCAUCCCACCACAUGAUGAUGCCUGAAGAGCCUUGGUUUUUUG

Variants of: B1
Assay: polymerase ribozyme fitness, log enrichment relative to wild type (log ratio); higher = more active; in vitro selection for triplet polymerase activity
Outline: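 Frozen incubation at −7 °C formed the core of a single, triplicate in vitro selection round applied to PCR-built, transcribed mutant libraries of each subunit of a heterodimeric triplet polymerase ribozyme. Extended constructs were gel-excised, captured with streptavidin beads and amplified by RT-PCR, and input and output libraries were Illumina-sequenced with a filter of ≥10 input reads and ≥1 read per output. Fitness is the logarithm of genotype enrichment relative to wild-type enrichment, with inverse-variance-weighted replicate averaging, and the logarithm is base 2.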

C4G G77A C86U C97U and C73G G93U are within 0.2 log units of each other in “polymerase ribozyme fitness (log ratio)” value: -3.31 for the first, -3.13 for the second.

First: C11G C49U C73A G77A C102U G110U
Second: C56G C85U
The “polymerase ribozyme fitness (log ratio)” value of the first is lower: -6.69 for the first, -0.934 for the second.

Going from A37U A75U to C70A C114G, the “polymerase ribozyme fitness (log ratio)” value falls from -0.0341 to -4.93.

First: A2U A41G U55A C72A
Second: C8A C53A C82A A108U
The “polymerase ribozyme fitness (log ratio)” value of the first is higher: -2.61 for the first, -5.69 for the second.

First: G51U U112A
Second: G47A U96A U126C
The “polymerase ribozyme fitness (log ratio)” value of the first is lower: -3.68 for the first, -3.31 for the second.

First: C8A C86U G110A G120U
Second: C28U C40A
The “polymerase ribozyme fitness (log ratio)” value of the first is higher: 0.0948 for the first, -2.12 for the second.

Compared with G58C C97U U116G G135C, A27C U55C C104U is lower in “polymerase ribozyme fitness (log ratio)” value: -3.26 for the first, -3.54 for the second.

First: C49U C70U U130C
Second: C70A U106C
The “polymerase ribozyme fitness (log ratio)” value of the first is higher: -0.66 for the first, -2.99 for the second.

U55A U81A G113A and C49G C82U C101G are within 0.2 log units of each other in “polymerase ribozyme fitness (log ratio)” value: -2.4 for the first, -2.53 for the second.

First: C8U C20A
Second: A26U C31G A43G C89A A121U
The “polymerase ribozyme fitness (log ratio)” value of the first is higher: -1.98 for the first, -7.24 for the second.

First: U9G C11U A27G G47C U78C C86U
Second: G93C U132C
The “polymerase ribozyme fitness (log ratio)” value of the first is lower: -2.22 for the first, -1.62 for the second.

First: C13G C72G C85A
Second: G47C U116C
The “polymerase ribozyme fitness (log ratio)” value of the first is lower: -3.33 for the first, -2.31 for the second.

Compared with C8A C20U G60A C88A, A46G C62U G117U is lower in “polymerase ribozyme fitness (log ratio)” value: -1.93 for the first, -3.06 for the second.

First: C12U G45U U132C
Second: C70U G93A
The “polymerase ribozyme fitness (log ratio)” value of the first is lower: -1.19 for the first, -0.708 for the second.

Going from U54A G60A U78C C89U G120A U126A to G52U A84C G93C, the “polymerase ribozyme fitness (log ratio)” value falls from -1.78 to -2.23.

Compared with A5U A37C G113U, C8U C15U C53A is higher in “polymerase ribozyme fitness (log ratio)” value: -3.79 for the first, -0.442 for the second.

First: C62A A119C C123U
Second: C53U G63U
The “polymerase ribozyme fitness (log ratio)” value of the first is lower: -2.98 for the first, -1.11 for the second.

First: C15A A29U
Second: A5U A46C C73A C98U
The “polymerase ribozyme fitness (log ratio)” value of the first is lower: -4.28 for the first, -1.57 for the second.

Compared with C13U G42U C104U, C53U U55G G63U U81C G93U U116C G135C is lower in “polymerase ribozyme fitness (log ratio)” value: -0.915 for the first, -5.21 for the second.

First: G60U C72U A111U
Second: C3G G47U C64A A90C C104U G113A
The “polymerase ribozyme fitness (log ratio)” value of the first is higher: -2.86 for the first, -6.9 for the second.

Compared with U9A U21G A41U G45A U130G, U33G G63C U112G U129A is lower in “polymerase ribozyme fitness (log ratio)” value: -4.18 for the first, -7.08 for the second.

First: A68G C73G U129C
Second: U7C G17U C31U A95C C123U
The “polymerase ribozyme fitness (log ratio)” value of the first is higher: -5.86 for the first, -6.24 for the second.

Going from C49A U59A G122A to G51A C64A U78C A84C G117C, the “polymerase ribozyme fitness (log ratio)” value falls from -1.33 to -6.38.

First: A5C U9C C13U
Second: G47A C53A C97A A119G C123A
The “polymerase ribozyme fitness (log ratio)” value of the first is higher: -0.074 for the first, -4.34 for the second.

Compared with C3A C8U A46U G63C U130C, C13A C70G is lower in “polymerase ribozyme fitness (log ratio)” value: -1.24 for the first, -3.31 for the second.

Going from C4G A26U A75U to A105C G120C, the “polymerase ribozyme fitness (log ratio)” value rises from -4.4 to -1.78.

First: G57U A68G
Second: C12U G39C U78A
The “polymerase ribozyme fitness (log ratio)” value of the first is lower: -3.27 for the first, 0.181 for the second.

Going from G44U U112G to G42C G52U G60C, the “polymerase ribozyme fitness (log ratio)” value falls from -1.6 to -2.14.

First: C8U G44A G69C C89U A118U C124G G127C
Second: U9G C13U C15A C40U G61C
The “polymerase ribozyme fitness (log ratio)” value of the first is higher: 0.163 for the first, -2.7 for the second.

Going from C13G C72G to U96C, the “polymerase ribozyme fitness (log ratio)” value rises from -0.869 to 0.0976.

Compared with C28U G71A, A18U C40A is lower in “polymerase ribozyme fitness (log ratio)” value: -2.58 for the first, -3.76 for the second.

Going from C11A C115U to C8A G52C U81A, the “polymerase ribozyme fitness (log ratio)” value rises from -2.42 to -2.06.

Compared with C4U A41G C62A A84C C115U, G44A G61C U78C C79G U112G U133G is higher in “polymerase ribozyme fitness (log ratio)” value: -4.65 for the first, -3.14 for the second.

Going from A18U C56U C64A G69A U112C U129A to U96C A105U, the “polymerase ribozyme fitness (log ratio)” value rises from -5.64 to -3.06.

Going from G35U U106C G122A to G45A C124U, the “polymerase ribozyme fitness (log ratio)” value rises from -6.34 to 0.272.

First: C13U G45A A84U U87A
Second: U9G G47C C80U
The “polymerase ribozyme fitness (log ratio)” value of the first is higher: -1.98 for the first, -3.21 for the second.

First: C86U U92C C115A C124A G127A
Second: U7A U38C A41C G44U
The “polymerase ribozyme fitness (log ratio)” value of the first is higher: -1.31 for the first, -3.32 for the second.

Going from A16U C73U A83U A95C to U33C U38G, the “polymerase ribozyme fitness (log ratio)” value falls from -2.3 to -4.8.

Going from C8U G23A to C8U C28U C56A U87G A119G U130C, the “polymerase ribozyme fitness (log ratio)” value rises from -4.81 to -1.12.

Going from A46U G57C C79U C85A G120U to G10A C53A C72U, the “polymerase ribozyme fitness (log ratio)” value rises from -3.83 to 0.298.

First: C73A C99U
Second: A5G A37C G58U G60U U87A
The “polymerase ribozyme fitness (log ratio)” value of the first is lower: -2.77 for the first, -1.82 for the second.

With G45C the “polymerase ribozyme fitness (log ratio)” value was -1.57.
